Data reported in patent US11707511B2, “Vaccine compositions and methods of using the same” (The Board of Supervisors of Louisiana State University and …, priority 2017, dated 2023).

B1: 10E7E2: IgG1 mAb of hybridoma 10E7E2, specific for GPV-P3; VH SEQ ID NO: 72, VL SEQ ID NO: 74 (antibody, V domains shown)
VH: QVQLKQSGPGLVQPSQSLSITCTVSGFSLTSYGVHWVRQSPGKGLEWLGVIWSGGTTDYNAAFISRLSISKDNSKSQVFFKMNSLQANDTAIYYCARGGHRGFAYWGQGTLVTVSA
VL: DIVMTQSHKFMSTSVGDRVSITCKASQDVGTAVAWYQQKPGQSPKLLIYWASTRHTGVPDRFTGSGSGTDFTLTISNVQSEDLADYFCQQYSSYPLTFGAGTKLELK
B2: 1D4H5: IgG1 mAb of hybridoma 1D4H5, specific for GPV-M1; VH SEQ ID NO: 64, VL SEQ ID NO: 66 (antibody, V domains shown)
VH: MYLGLNCVFIVFLLKGVQSEVKLEESGGGLVQPGGSMKLSCVASGFTFSNYWMNWVRQSPEKGLEWVAEIRLKSNNYATHYAESVKGRFTISSDDSKSSVYLQMNNLRAEDTGIYYCSTGNYWGQGTTLTVSS
VL: MDFQMQIISLLLISVTVIVSNGEIVLTQSPTTMAASPGEKITITCSASSTISSNYLHWYQQKPGFSPKLLIYRTSNLASGVPARFSGSGSGTSYSLTIGTMEAEDVATYYCQQGSTISRTFGSGTKLEIK

How the values were obtained:
[1] = system: C. glabrata ATCC 2001; assay: Passive transfer of mAbs, neutropenic mouse model of disseminated candidiasis by C. glabrata; format: in vivo; settings: for Protection against C. glabrata / Protection against C. glabrata (grade word): Table 6, neutropenic BALB/c mice, mAb i.p. 4 h before 1×10^8 C. glabrata i.v.; for Protection against Candida spp in mouse model: Against C. glabrata / Protection against Candida spp in mouse model: Against C. glabrata (grade word): Table 9
Text: (§1) Induction of neutropenia. Although C. albicans remains the dominant disease-causing pathogen of this genus, rates of infections caused by non-albicans Candida (NAC) species are increasing. Among these Candida species, only C. albicans is pathogenic in the normal mouse model. To test vaccine and mAbs against non-albicans Candida spp, we have developed neutropenic murine models of disseminated infection by C. glabrata, C. tropicalis, and C. parapsilosis. Before challenge, BLAB/c mice were made neutropenic by intraperitoneal receipt of a 200 mg/kg dose of cyclophosphamide (CY; Sigma-Aldrich) at day −3. The i.p. injection (150 mg/kg) is repeated every 10 days after infection (i.e., at days 10, 20, 30, and 40 post-infection) in order to maintain low neutrophil counts for the entire experimental procedure. […] To evaluate leukocytopenia in these mice, blood samples were collected from tail veins 3 days after each CY or saline injection (n=10 in each group). Total leukocyte and differential cell counts were determined on a hemocytometer and by Wright-Giemsa staining. Body weights of the mice were also measured and compared for 14 days after the first CY or saline injection (n=10 in each group).
(§2) Fungal challenge dose and assessment ofprotection. Although C. albicans remains the dominant disease-causing pathogen of this genus, rates of infections caused by non-albicans Candida (NAC) species are increasing (18). Among these Candida species, only C. albicans is pathogenic in the normal mouse model (19,20). We have developed neutropenic murine models of disseminated infection by C. glabrata, C. tropicalis, and C. parapsilosis. […] In details, mice of different experimental groups (five mice per group) were intravenously infected with 5×10^6 viable C. parapsilosis ATCC MYA-4646 (A), 1×108 C. glabrata ATCC 2001 cells (B) and 1×107 C. tropicalis ATCC 28775 cells (C) in 0.1 ml DPBS. As controls, immunocompetent mice were challenged with the same dose of each Candida strain tested.
(§3) Passive transfer of MAbs by intraperitoneal (i.p.) route. The preventive effect of peptide-specific mAbs listed in Table 3 and Table 4 in naïve mice was examined by passive transfer experiments. Each mAb was appropriately diluted in DPBS to give a 40,000-100,000 ELISA titer against each corresponding specific peptide coated on the plate. For testing, mice received 0.5 ml of each mAb or 1 ml of two mAbs in combination (0.5 ml of each) intraperitoneally. Table 6 and Table 7 have listed all the peptide-specific mAb combinations that have been tested, as well as the protective efficacy of each mAb cocktail as compared to single mAb treatment. The negative control materials tested in mice were single mAb or DPBS. Control mice received 0.5 ml of the DPBS diluents or single mAb treatment. For each condition, 6- to 8-week-old female BALB/c mice (NCI) were given 0.5 ml of test mAb, or 1 ml two mAb cocktails or control materials intraperitoneally, followed 4 h later by 0.1 ml intravenously of defined lethal dose of yeast cells per milliliter of DPBS. Mice were divided into groups with five mice each and three independent experiments were carried out. In some experiments, mice were given the same dose of mAbs or control materials on every other day post-challenge for two weeks, as compared to the protective efficacy of mAb in combinations. All mice were sacrificed on day 50. For animal groups that were challenged non-albicans candida species, determined optimal challenge doses were applied for each candida strain.
(§4) The preventive effect of each universal peptide-specific mAb was examined by passive transfer experiments. Each mAb was appropriately diluted in DPBS (0.2 μg/μl) to give a 100,000 ELISA titer against each universal peptide coated on the plate. For testing, 5 mice of each tested group received 0.5 ml of each mAb intraperitoneally. The negative control materials tested in mice were mAbs absorbed with C. albicans yeast cells (3153A) and DPBS. […]

[2] = system: C. tropicalis ATCC 28775; assay: Passive transfer of mAbs, neutropenic mouse model of disseminated candidiasis by C. tropicalis; format: in vivo; settings: for Protection against C. tropicalis / Protection against C. tropicalis (grade word): Table 6, neutropenic BALB/c mice, mAb i.p. 4 h before 1×10^7 C. tropicalis i.v.; for Protection against Candida spp in mouse model: Against C. tropicalis / Protection against Candida spp in mouse model: Against C. tropicalis (grade word): Table 9
Text: as §1, §2, §3, §4

[3] = system: C. auris AR-0386; assay: Passive transfer of mAbs or two mAbs in combination in A/J mouse model of invasive C. auris infection; format: in vivo, Candida auris
Description: A. Complement protein C5-defecient A/J mice were treated with one of the five mAb or with DPBS as a vehicle control. The following day, mice were challenged with 1×10^8 C. auris cells/100 ul DPBS dose per mouse. […] B. Fungal burdens in the kidneys (top), heard (center), and brain (bottom).
Identified protective mAbs were obtained by use of standard hybridoma technique and purified by use of protein A/G. A/J mice were given an i.p. dose of either single mAb or two mAbs in combination 24 hours before hematogensous challenge with a lethal dose (2×108) of C. auris AR-0386 live cells. Mice received either 9G2F5 alone or 6H1G8 alone or 9F2G5 and 3H7E3 in combination had 40% survival rate respectively, with prolonged survival as compared to control animals that received DPBS buffer control.
Evaluation and validation of a panel of peptide-specific monoclonal antibodies (mAbs) as a passive immunization strategy protect against invasive C. auris infection in established A/J mouse model of human disease.
The monoclonal antibodies used in this experiment were: • 6H1G8 (IgG2b), α-Hwp1 (Hyphal wall protein) • 3E2G2 (IgG2b), α-Fba (Fructose bisphosphate aldolase) • 10E7E2 (IgG1), α-GPV-P3 (General peptide vaccine 3 from Phosphoglycerate kinase) • 9F2G5 (IgG2a), α-Pgk1 (Phosphoglycerate kinase) • 3H7E3 (IgG1), α-Met6 (Methyltetrahydropteroyltriglutamate)

[4] = system: C. parapsilosis ATCC MYA-4646; assay: Passive transfer of mAbs, neutropenic mouse model of disseminated candidiasis by C. parapsilosis; format: in vivo; settings: Table 6; neutropenic BALB/c mice; mAb i.p. 4 h before 5×10^6 C. parapsilosis i.v.
Text: as §1, §2
Passive transfer of MAbs by intraperitoneal (i.p.) route. The preventive effect of peptide-specific mAbs listed in Table 3 and Table 4 in naïve mice was examined by passive transfer experiments. Each mAb was appropriately diluted in DPBS to give a 40,000-100,000 ELISA titer against each corresponding specific peptide coated on the plate. For testing, mice received 0.5 ml of each mAb or 1 ml of two mAbs in combination (0.5 ml of each) intraperitoneally. Table 6 and Table 7 have listed all the peptide-specific mAb combinations that have been tested, as well as the protective efficacy of each mAb cocktail as compared to single mAb treatment. […] For animal groups that were challenged non-albicans candida species, determined optimal challenge doses were applied for each candida strain. […]

Molecule | Protection against C. glabrata [1] | Protection against C. glabrata (grade word) [1] | Protection against Candida spp in mouse model: Against C. glabrata [1] | Protection against Candida spp in mouse model: Against C. glabrata (grade word) [1] | Protection against C. tropicalis [2] | Protection against C. tropicalis (grade word) [2] | Protection against Candida spp in mouse model: Against C. tropicalis [2] | Protection against Candida spp in mouse model: Against C. tropicalis (grade word) [2] | fungal burdens in targeted organs ([3]; A/J mouse model, in words) | protection against C. auris invasive infection ([3]; A/J mouse model, in words) | survival ([3]; FIG. 15A, A/J mice, 1×10^8 C. auris cells, experiment terminated 40 days post challenge) [%] | Protection against C. auris ([3]; Table 19, A/J strain mice) | Protection against C. auris (grade word) ([3]; Table 19, A/J strain mice) | Protection against C. parapsilosis [4] | Protection against C. parapsilosis (grade word) [4]
B1 | (60-70%) | High | (60-70%) | High | (60-70%) | High | (60-70%) | High | lower fungal loads | protect against C. auris invasive infection | 25 | 80-100% | High | (60-80%) | High
B2 | (70-90%) | High | (70-90%) | High | (60-80%) | High | (60-80%) | High | – | – | – | – | – | (70-80%) | High
